From paper PMC5143164 (Structure (London, England : 1993), 2016)
Like-named read-outs stand apart in the source and are kept apart here. Values belong to the binder of their own block, whether it stands above or below them.

B1: Rap1B (residues 1-167), GMP-PNP bound (domain or fragment, human, UniProt P61224 1-167, looked up)
chain: MREYKLVVLGSGGVGKSALTVQFVQGIFVEKYDPTIEDSYRKQVEVDAQQCMLEILDTAGTEQFTAMRDLYMKNGQGFALVYSITAQSTFNDLQDLREQILRVKDTDDVPMILVGNKCDLEDERVVGKEQGQNLARQWNNCAFLESSAKSKINVNEIFYDLVRQINR
B3: Rasip1 RA domain (residues 134-285) (domain or fragment, human, UniProt Q5U651 134-285, looked up)
chain: EPPLATRATAPPGVLKIFGAGLASGANYKSVLATARSTARELVAEALERYGLAGSPGGGPGESSCVDAFALCDALGRPAAAGVGSGEWRAEHLRVLGDSERPLLVQELWRARPGWARRFELRGREEARRLEQEAFGAADSEGTGAPSWRPQK
B4: Radil RA domain (residues 51-193) (domain or fragment, human, UniProt Q96JH8 51-193, looked up)
chain: DPAELSTQLSAPGVLKVFGDSVCTGTHYKSVLATGTSSARELVKEALERYALDPRQAGQYVLCDVVGQAGDAGQRWQARCFRVFGDSEKPLLIQELWKPREGLSRRFELRKRSDVEELAAKEVDTITAGINAQARRLQRSRAK

Tests used:
[1] = biological target: B3; test: ITC
[2] = biological target: B4; test: ITC
[3] = biological target: the molecule itself; test: crystal structure
[4] = biological target: B1; test: crystal structure
[5] = biological target: the molecule itself; test: NMR linewidths
[6] = biological target: B1; test: ITC
[7] = biological target: B1; test: ITC; remark: listed apart in the source
[8] = biological target: HRas (residues 1-189), GMP-PNP bound (human, UniProt P01112 1-189); test: ITC
Sequence of HRas (residues 1-189), GMP-PNP bound (P01112 whole entry, the tested form may be a part): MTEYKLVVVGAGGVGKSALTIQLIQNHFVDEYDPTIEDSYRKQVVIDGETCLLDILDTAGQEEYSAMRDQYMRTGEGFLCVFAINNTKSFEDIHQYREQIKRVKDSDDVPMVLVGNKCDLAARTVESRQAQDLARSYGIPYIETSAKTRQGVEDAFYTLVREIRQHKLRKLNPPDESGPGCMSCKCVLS

Binder: B1
dH [1]: -3.4 kcal/mol
stoichiometry N [1]: 1.22
dH [2]: -6.5 kcal/mol
stoichiometry N [2]: 1.04

binding result [4]: binds
B2: trypsin-treated Rasip1 RA domain (domain or fragment, human, UniProt Q5U651 141-285, looked up)
chain: ATAPPGVLKIFGAGLASGANYKSVLATARSTARELVAEALERYGLAGSPGGGPGESSCVDAFALCDALGRPAAAGVGSGEWRAEHLRVLGDSERPLLVQELWRARPGWARRFELRGREEARRLEQEAFGAADSEGTGAPSWRPQK
binding result [3]: binds

Binder: B3
binding result [5]: binds
Kd [6]: 0.77 ± 0.09 µM
Kd [7]: 0.9 µM
Kd [8]: 2.2 µM

Binder: B4
Kd [7]: 1.2 µM
Kd [8]: 3.9 µM
